Assay [1] addresses T1, AF9-YEATS Y78W (Homo sapiens, UniProt P42568, Y78W).
T1 sequence (P42568 1-138 Y78W): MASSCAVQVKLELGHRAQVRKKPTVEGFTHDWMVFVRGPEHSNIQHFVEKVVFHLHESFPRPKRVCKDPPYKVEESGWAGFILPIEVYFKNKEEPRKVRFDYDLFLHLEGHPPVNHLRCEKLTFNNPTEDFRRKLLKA
In words: Tryptophan fluorescence binding, AF9-YEATS Y78W. The note with it: 20 mM Tris pH 7.5, 500 mM NaCl, 2 mM BME, 25 °C, 1–2 µM protein, peptides aa 5–13, average of three separate experiments ± SD, read-out: Binding affinity Kd.

Assay [2] addresses T2, Taf14-YEATS G82A (Saccharomyces cerevisiae, UniProt P35189, G82A). The experiment in a line: biochemical.
For assay [3], the target named is T2, Taf14-YEATS G82A. In words: biochemical. The format is binding, yeast.
Method: Kd value was calculated by a nonlinear least-squares analysis in Kaleidagraph using the1 Δδ=ΔδmaxL+P+Kd-L+P+Kd^2-4PL/2P where [L] is concentration of free acetyllysine, [P] is concentration of the protein, Δδ is the observed chemical shift change, and Δδmax is the normalized chemical shift change at saturation. Normalized chemical shift changes were calculated using the equation2 Δδ=ΔδH^2+ΔδN/5^2 where Δδ is the change in chemical shift in parts per million (ppm).
Assay [4] addresses T3, Taf14 YEATS domain (yeast, UniProt P35189 1-137).
T3 chain: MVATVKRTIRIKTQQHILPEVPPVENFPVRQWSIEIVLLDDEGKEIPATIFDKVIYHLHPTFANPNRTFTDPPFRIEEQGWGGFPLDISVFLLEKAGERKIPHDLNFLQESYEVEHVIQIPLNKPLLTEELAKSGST

The target of assay [5] is T4, AF9-YEATS domain (aa 1-138) (human, UniProt P42568 1-138).
T4 chain: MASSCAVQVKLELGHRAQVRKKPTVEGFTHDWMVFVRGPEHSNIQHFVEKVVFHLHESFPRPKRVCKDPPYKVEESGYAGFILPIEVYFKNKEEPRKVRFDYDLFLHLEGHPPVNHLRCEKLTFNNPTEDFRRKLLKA

In assay [6] the target is T5, AF9-YEATS Y78W (human, UniProt P42568 1-138, Y78W).
T5 sequence: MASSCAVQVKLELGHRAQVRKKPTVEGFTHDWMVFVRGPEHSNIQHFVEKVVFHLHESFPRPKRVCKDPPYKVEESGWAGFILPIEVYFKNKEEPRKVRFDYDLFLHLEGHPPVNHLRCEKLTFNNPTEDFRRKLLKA

Assay [7] concerns the target T6, AF9-YEATS domain (aa 1-138) (human, UniProt P42568 1-138).
T6 construct: AF9, human, YEATS domain, aa 1-138, in pET28b; His tag cleaved with thrombin; 15N-labelled for NMR; also called WT AF9-YEATS; source: E. coli BL21 (DE3) RIL, purified (nickel-NTA, ion exchange / size exclusion)
T6 sequence (looked up): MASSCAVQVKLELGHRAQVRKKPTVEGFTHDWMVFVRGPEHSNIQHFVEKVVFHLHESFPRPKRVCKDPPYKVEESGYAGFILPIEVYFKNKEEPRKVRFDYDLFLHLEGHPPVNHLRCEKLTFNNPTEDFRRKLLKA
The experiment in a line: other fluorescence titration; tryptophan fluorescence; 1-2 µM wild-type or mutated AF9 YEATS domain in 20 mM Tris pH 7.5, 500 mM NaCl, 2 mM BME, 25 °C, increasing concentrations of H3 peptide (aa 5-13). Particulars: both partners purified.

The target in assay [8] is T7, AF9-YEATS Y78W (human, UniProt P42568 1-138, Y78W).
T7 construct: AF9, human, YEATS domain, aa 1-138 with Y78W; also called Y78W mutant; source: E. coli BL21 (DE3) RIL, purified
T7 sequence (looked up): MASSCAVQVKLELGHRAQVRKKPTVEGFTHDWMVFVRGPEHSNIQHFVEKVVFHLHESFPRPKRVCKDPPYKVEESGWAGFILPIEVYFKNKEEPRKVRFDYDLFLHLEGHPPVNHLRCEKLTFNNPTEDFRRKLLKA
The assay is described as above. The note with it: both partners purified.

Another assay addresses T8, Taf14-YEATS G82A (1-137) (yeast, UniProt P35189 1-137, G82A).
T8 construct: Taf14, yeast, YEATS domain, aa 1-137 with G82A (construct used for crystallization); Also crystallized in the apo state; also called G82A mutant; source: E. coli BL21 (DE3) RIL, purified
T8 sequence (looked up): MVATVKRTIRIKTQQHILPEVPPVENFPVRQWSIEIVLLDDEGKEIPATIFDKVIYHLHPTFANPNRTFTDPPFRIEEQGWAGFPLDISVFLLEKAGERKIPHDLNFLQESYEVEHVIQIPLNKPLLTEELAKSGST
In words: crystal structure; Taf14-YEATS (1-137) with 5 (wild type) or 10 (G82A) molar equivalents of peptide; sitting drop, 18 °C, PEG 600, citric acid pH 6.0. Particulars: both partners purified.

The target in another assay is T9, AF9-YEATS Y78W/A79G (human, UniProt P42568 1-138, Y78W | A79G).
T9 sequence: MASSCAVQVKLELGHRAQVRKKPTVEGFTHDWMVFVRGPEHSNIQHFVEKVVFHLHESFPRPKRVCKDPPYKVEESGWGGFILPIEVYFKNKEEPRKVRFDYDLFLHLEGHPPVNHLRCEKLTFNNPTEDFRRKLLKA

A further assay addresses Taf14-YEATS W81Y (yeast, UniProt P35189 1-137, W81Y).
The next assay relates to H3K9acyl. The note with it: cited from earlier work. An excerpt:
To assess how AF9-YEATS interacts with both H3K9acyl and DNA, we reconstituted H3K9acyl-containing nucleosome core particles (H3K9cr-NCPs and H3K9ac-NCP) and examined binding of AF9-YEATS to these NCPs and to unmodified NCP in EMSA.

The target of assay [9] is T3, Taf14 YEATS domain. In words: NMR.
Assay [10] deals with T3, Taf14 YEATS domain. In words: other fluorescence titration; tryptophan fluorescence; 1-2 µM wild-type or mutated Taf14 YEATS domain in PBS pH 7.4, 25 °C, increasing concentrations of H3 peptide (aa 5-13); excitation 295 or 280 nm.
A further assay has as its target T10, Taf14-YEATS (1-137) (yeast, UniProt P35189 1-137).
T10 construct: Taf14, yeast, YEATS domain, aa 1-137 (construct used for crystallization); GST tag probably cleaved for crystallization (surmise); also called wild-type Taf14-YEATS; source: E. coli BL21 (DE3) RIL, purified (glutathione Sepharose 4B, size exclusion)
T10 sequence (looked up): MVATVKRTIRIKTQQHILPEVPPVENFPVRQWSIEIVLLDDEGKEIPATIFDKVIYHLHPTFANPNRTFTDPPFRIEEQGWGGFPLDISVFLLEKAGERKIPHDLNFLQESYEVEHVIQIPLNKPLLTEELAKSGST
The experiment in a line: crystal structure; Taf14-YEATS (1-137) with 5 (wild type) or 10 (G82A) molar equivalents of peptide; sitting drop, 18 °C, PEG 600, citric acid pH 6.0. The note with it: both partners purified.

The target in assay [11] is T7, AF9-YEATS Y78W. The experiment in a line: crystal structure; AF9-YEATS (wild type or Y78W) at 6 mg/ml with two molar equivalents of peptide; sitting drop, 4 °C. Particulars: both partners purified.
Assay [12] addresses T6, AF9-YEATS domain (aa 1-138). Described as above. The note with it: both partners purified.

Where two headings read alike, the source gives them in different places. *1 amine or outer side, *2 acyl side, *3 side chain or, on linkers, in order; H or OH if unused. Where no end group is shown, it is not given here. The star is where a group is joined. Suc = O=C(CCC(=O)[*:2])[*:1]; Crotonyl(E) = C/C=C/C(=O)*; Propionyl = CCC(=O)*; Butyryl = CCCC(=O)*

For orientation: Kd means the free concentration of one partner at which half of the binding sites on the other are occupied at equilibrium, for simple one-to-one binding. Turning to `C/C=C/C(=O)NCCCC[C@H](NC(=O)[C@H](CCCNC(=N)N)NC(=O)[C@H](C)NC(=O)[C@@H](NC(=O)[C@@H](N)CCC(N)=O)[C@@H](C)O)C(=O)N[C@@H](CO)C(=O)N[C@H](C(=O)NCC(=O)NCC(=O)O)[C@@H](C)O` [H3K9cr], the equilibrium dissociation constant (Kd) is 2 µM on AF9-YEATS Y78W [1] and 124 µM on Taf14-YEATS G82A [2]. Further, on Taf14-YEATS G82A [3] (from NMR titration data for H3K9ac, author's response in peer review file), the “Selectivity of G82A mutant for H3K9cr (over H3K9ac)” value is “greater than 80 -fold”.

The molecule `CC(=O)NCCCC[C@H](NC(=O)[C@H](CCCNC(=N)N)NC(=O)[C@H](C)NC(=O)[C@@H](NC(=O)[C@@H](N)CCC(N)=O)[C@@H](C)O)C(=O)N[C@@H](CO)C(=O)N[C@H](C(=O)NCC(=O)NCC(=O)O)[C@@H](C)O` [H3K9ac] showed a Kd on Taf14-YEATS G82A [3] above 10000 µM.

B1: histone H3K9ac peptide (aa 5-13) (peptide, UniProt P68431 6-14, looked up)
peptide: QTARK(Ac)STGG
notes: histone H3, residues 5-13, K9 acetylated; source: bought: Synpeptide
In the case of B1, the dissociation constant (Kd) with Taf14 YEATS domain [4] was found to be 130 µM; in assay [5] it was 4.3 µM; with AF9-YEATS Y78W [6] it was 2.3 µM; with AF9-YEATS Y78W [8] it was 2 µM. Moreover, the binding result in [7] was “binds”.

B2: histone H3K9cr peptide (aa 5-13) (peptide, UniProt P68431 6-14, looked up)
peptide: QTARK(Crotonyl(E))STGG
notes: histone H3, residues 5-13, K9 crotonylated; also called H3K9cr (5-13); source: bought: Synpeptide
B2: the equilibrium dissociation constant (Kd) with Taf14 YEATS domain [4] came out at 9 µM; in assay [5] it was 3.7 µM. Besides, the binding result (in assay [7]; with Taf14-YEATS G82A (1-137)) was “binds” throughout.

For QTARK(Crotonyl(E))STGG [histone H3K9cr peptide (limits not stated)], the dissociation constant Kd with AF9-YEATS Y78W/A79G was determined as 2.7 µM; in the assay with Taf14-YEATS W81Y it was 9.2 µM.

B3: AF9-YEATS F59A/Y78A: AF9-YEATS mutant defective in H3K9acyl binding (protein)
chain: MASSCAVQVKLELGHRAQVRKKPTVEGFTHDWMVFVRGPEHSNIQHFVEKVVFHLHESAPRPKRVCKDPPYKVEESGAAGFILPIEVYFKNKEEPRKVRFDYDLFLHLEGHPPVNHLRCEKLTFNNPTEDFRRKLLKA
modifications: left off: His tag, end not stated, cleaved
For B3, in the assay on H3K9acyl, the “H3K9acyl binding of mutant” value was “defective in H3K9acyl binding”.

On to QTARK(Ac)STGG [histone H3K9ac peptide (limits not stated)], for which, in the assay with AF9-YEATS Y78W/A79G, the affinity, expressed as Kd, was 2.6 µM.

QTARK(Suc)STGG [histone H3K9su peptide] displayed a Kd with Taf14 YEATS domain [9] above 700 µM.

B4: histone H3K9bu peptide (aa 5-13) (peptide, UniProt P68431 6-14, looked up)
peptide: QTARK(Butyryl)STGG
notes: histone H3, residues 5-13, K9 butyrylated; also called H3K9bu (5-13); source: bought: Synpeptide
In the case of B4, the fold reduction of binding against H3K9cr with Taf14 YEATS domain [10] turned out to be 3 fold. Also, the dissociation constant (Kd) with Taf14 YEATS domain [4] turned out to be 28 µM; in [5] it was 3.9 µM; in the assay with Taf14-YEATS W81Y, 40 µM. Besides, the binding result (in assay [7]; with Taf14-YEATS (1-137)) was “binds” each time.

B5: histone H3K9pr (5-13) peptide (peptide, UniProt P68431 6-14, looked up)
peptide: QTARK(Propionyl)STGG
notes: histone H3, residues 5-13, K9 propionylated; also called propionylated H3K9pr peptide
As to B5, in the assay with Taf14-YEATS (1-137), the binding result is on record as “binds”.

B6: histone H3K9cr (5-14) peptide (peptide, UniProt P68431 6-15, looked up)
peptide: QTARK(Crotonyl(E))STGGK
notes: histone H3, residues 5-14, K9 crotonylated
With B6, in the assay with AF9-YEATS Y78W [11], the binding result is “binds”.

B7: histone H3K9bu (1-19) peptide (peptide, UniProt P68431 2-20, looked up)
peptide: ARTKQTARKSTGGKAPRKQ
modifications: butyryllysine at K9
notes: histone H3, residues 1-19, K9 butyrylated
As for B7, the binding result in assay [12] is reported as “binds”.

These data come from publication PMC6212594, “Structural insights into the π-π-π stacking mechanism and DNA-binding activity of the YEATS domain” (Nature Communications, 2018).
